In publication doi:10.1101/2023.04.04.535563 (bioRxiv, 2023):

Target: caleosin 2 (CLO2), Cub fusion (A. thaliana, UniProt Q9FLN9 1-243)
Assay: two-hybrid

Sequence of caleosin 2 (CLO2), Cub fusion (Q9FLN9 whole entry, the tested form may be a part): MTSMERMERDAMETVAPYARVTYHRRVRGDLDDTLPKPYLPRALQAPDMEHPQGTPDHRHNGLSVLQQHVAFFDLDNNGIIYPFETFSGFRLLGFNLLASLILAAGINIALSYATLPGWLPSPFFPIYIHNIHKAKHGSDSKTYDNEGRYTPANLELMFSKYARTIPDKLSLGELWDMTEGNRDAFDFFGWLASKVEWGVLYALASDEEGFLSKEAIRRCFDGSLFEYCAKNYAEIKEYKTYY

fold weaker β-galactosidase activity (against CLO1, CLO3 and OLE1): 2 fold
B1: autophagy-related protein 8b (ATG8b), NubG fusion (natural protein, A. thaliana, UniProt Q9XEB5 1-117, looked up)
chain: MEKNSFKLSNPLEMRMAESTRIRAKYPERVPVIVEKAGQSDVPDIDKKKYLVPADLTIGQFVYVVRKRIKLGAEKAIFVFVKNTLPPTAALMSAIYEEHKDEDGFLYMTYSGENTFG
